Measurements published in US20250002577A1 (ONCORESPONSE, published 2025).
Positions count from the first letter of the chain named. Numbers in names are those of the source.

B1: B21H4-51 (antibody, human IgG4 S228P, kappa, V domains shown)
VH: QVQLEESGGRLVQPGTSLRLSCAVSGFSLNTYAMTWVRQAPGKGLEWIGIIVASGGTYYASWAKGRFTISRDTSKNTLYLQITSLRAEDTATYFCARGGMGSDWGESLDAFDPWGQGTLVTVSS
VL: DIQMTQSPSTLSASVGDRVTITCQASGNIYSFLAWYQQKPGKAPKLLIYTASNLETGVPSRFSGSGSGTEYTLTISSLQPDDFATYYCLGGLYSSDVSYAFGPGTKVEIKR
notes: humanized IgG4/kappa, VH5+VL1; transfection supernatant
B2: B21H4-54 (antibody, human IgG4 S228P, kappa, V domains shown)
VH: B1 VH
VL: B1 VL with I2V, Q3V, L11V, I21L, K42Q, A43P, S60D, E70D, P80A, P103Q
notes: humanized IgG4/kappa, VH5+VL4; transfection supernatant
B3: B21H4-53 (antibody, human IgG4 S228P, kappa, V domains shown)
VH: B1 VH
VL: B1 VL with Q3V, T10S, L11V, E70D, Y71F, D81E, P103G, E108V
notes: humanized IgG4/kappa, VH5+VL3; transfection supernatant
B4: B21H4-14 (antibody, human IgG4 S228P, kappa)
heavy: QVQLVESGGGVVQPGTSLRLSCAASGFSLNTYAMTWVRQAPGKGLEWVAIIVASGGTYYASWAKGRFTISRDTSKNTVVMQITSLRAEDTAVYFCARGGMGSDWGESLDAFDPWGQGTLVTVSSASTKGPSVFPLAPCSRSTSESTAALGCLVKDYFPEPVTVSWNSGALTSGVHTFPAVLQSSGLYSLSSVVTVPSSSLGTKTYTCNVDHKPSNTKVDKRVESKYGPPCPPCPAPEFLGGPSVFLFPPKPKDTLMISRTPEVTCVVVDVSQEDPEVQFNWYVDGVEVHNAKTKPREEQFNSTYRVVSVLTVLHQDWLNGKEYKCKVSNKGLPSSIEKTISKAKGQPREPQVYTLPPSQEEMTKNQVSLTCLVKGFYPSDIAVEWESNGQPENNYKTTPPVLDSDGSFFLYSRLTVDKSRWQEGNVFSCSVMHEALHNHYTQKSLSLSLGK
light: DVVMTQSPSTVSASVGDRVTLTCQASGNIYSFLAWYQQKPGQPPKLLIYTASNLETGVPDRFSGSGSGTDYTLTISSLQADDFATYYCLGGLYSSDVSYAFGQGTKVEIKRTVAAPSVFIFPPSDEQLKSGTASVVCLLNNFYPREAKVQWKVDNALQSGNSQESVTEQDSKDSTYSLSSTLTLSKADYEKHKVYACEVTHQGLSSPVTKSFNRGEC
notes: humanized IgG4/kappa, VH1+VL4; transfection supernatant
B5: B21H4-45 (antibody, human IgG4 S228P, kappa)
heavy: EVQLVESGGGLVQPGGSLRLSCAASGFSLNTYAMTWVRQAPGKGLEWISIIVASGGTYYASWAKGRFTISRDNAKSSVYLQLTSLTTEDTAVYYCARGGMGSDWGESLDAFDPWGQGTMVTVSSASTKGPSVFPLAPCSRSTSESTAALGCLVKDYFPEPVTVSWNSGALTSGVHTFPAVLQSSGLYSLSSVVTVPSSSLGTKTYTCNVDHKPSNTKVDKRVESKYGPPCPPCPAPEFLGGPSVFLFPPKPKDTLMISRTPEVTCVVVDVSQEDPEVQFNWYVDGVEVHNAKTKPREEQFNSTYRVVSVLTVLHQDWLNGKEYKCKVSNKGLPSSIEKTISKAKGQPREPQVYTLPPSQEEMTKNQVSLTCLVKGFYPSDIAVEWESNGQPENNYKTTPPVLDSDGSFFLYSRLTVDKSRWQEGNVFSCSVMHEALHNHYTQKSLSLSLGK
light: DIQMTQTPSTVEASVGGTVTITCQASGNIYSFLAWYQQKPGQPPKLLIYTASNLETGVPSRFSGSGSGTEYTLTISGLQSDDAATYYCLGGLYSSDVSYAFGGGTEVVVKRTVAAPSVFIFPPSDEQLKSGTASVVCLLNNFYPREAKVQWKVDNALQSGNSQESVTEQDSKDSTYSLSSTLTLSKADYEKHKVYACEVTHQGLSSPVTKSFNRGEC
notes: humanized IgG4/kappa, VH4+VL5; transfection supernatant
B6: B21A4 (antibody, human IgG4 S228P, kappa)
heavy: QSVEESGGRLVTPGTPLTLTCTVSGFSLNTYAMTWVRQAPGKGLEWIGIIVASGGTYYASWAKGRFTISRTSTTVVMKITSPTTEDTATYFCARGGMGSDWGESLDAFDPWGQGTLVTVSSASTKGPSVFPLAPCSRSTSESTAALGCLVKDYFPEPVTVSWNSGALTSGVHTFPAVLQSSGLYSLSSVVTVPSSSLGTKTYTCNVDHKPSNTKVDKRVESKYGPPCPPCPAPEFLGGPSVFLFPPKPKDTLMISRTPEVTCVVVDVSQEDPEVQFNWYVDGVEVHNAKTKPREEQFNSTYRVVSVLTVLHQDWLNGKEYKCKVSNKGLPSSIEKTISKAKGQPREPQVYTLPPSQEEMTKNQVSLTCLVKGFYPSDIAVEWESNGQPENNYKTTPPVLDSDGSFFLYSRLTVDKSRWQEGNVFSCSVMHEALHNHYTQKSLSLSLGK
light: B5 light with Q3V, S9A, T10S, S14A, T22N, L78V, S80C
notes: Rabbit/human chimera, human IgG4/kappa; 3 is used here; also called B21A chimera IgG4; Clone B21A4
B7: B21H4-13 (antibody, human IgG4 S228P, kappa)
heavy: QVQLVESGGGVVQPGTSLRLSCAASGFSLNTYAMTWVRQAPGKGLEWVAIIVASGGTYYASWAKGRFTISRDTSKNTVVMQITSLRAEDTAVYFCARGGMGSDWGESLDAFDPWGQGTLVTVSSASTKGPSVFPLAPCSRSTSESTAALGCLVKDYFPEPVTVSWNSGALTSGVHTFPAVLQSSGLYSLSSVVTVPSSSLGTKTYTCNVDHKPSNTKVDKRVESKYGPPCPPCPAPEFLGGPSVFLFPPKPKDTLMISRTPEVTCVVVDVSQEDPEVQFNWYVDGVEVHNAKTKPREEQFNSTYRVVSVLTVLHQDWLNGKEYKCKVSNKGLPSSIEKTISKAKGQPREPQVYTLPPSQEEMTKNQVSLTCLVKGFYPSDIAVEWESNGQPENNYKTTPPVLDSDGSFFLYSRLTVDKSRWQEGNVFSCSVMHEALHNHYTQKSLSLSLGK
light: DIVMTQSPSSVSASVGDRVTITCQASGNIYSFLAWYQQKPGKAPKLLIYTASNLETGVPSRFSGSGSGTDFTLTISSLQPEDFATYYCLGGLYSSDVSYAFGGGTKVVIKRTVAAPSVFIFPPSDEQLKSGTASVVCLLNNFYPREAKVQWKVDNALQSGNSQESVTEQDSKDSTYSLSSTLTLSKADYEKHKVYACEVTHQGLSSPVTKSFNRGEC
notes: humanized IgG4/kappa, VH1+VL3; transfection supernatant

What follows are binders tested against T1, recombinant human LILRB1-His (human, UniProt Q8NHL6 24-458) (assay: MSD ELISA, coated antigen, transfection supernatant).
T1 construct: Bought protein; also called LILRB1 protein
T1 sequence (Q8NHL6 24-458 limits assumed): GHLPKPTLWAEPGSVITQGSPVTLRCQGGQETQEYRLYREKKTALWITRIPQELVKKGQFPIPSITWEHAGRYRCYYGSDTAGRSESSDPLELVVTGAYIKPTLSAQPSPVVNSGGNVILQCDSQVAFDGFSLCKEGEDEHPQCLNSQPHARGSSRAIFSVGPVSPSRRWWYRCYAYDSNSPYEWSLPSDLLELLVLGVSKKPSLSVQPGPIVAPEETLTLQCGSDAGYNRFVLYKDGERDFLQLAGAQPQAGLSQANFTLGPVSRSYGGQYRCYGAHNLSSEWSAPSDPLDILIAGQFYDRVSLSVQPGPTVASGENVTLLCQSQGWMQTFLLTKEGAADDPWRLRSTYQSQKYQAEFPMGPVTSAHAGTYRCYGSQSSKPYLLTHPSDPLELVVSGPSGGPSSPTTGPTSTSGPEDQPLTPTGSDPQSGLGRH
Experimental: (§1) To confirm binding to human LILRB1 and human LILRB2, transfection supernatants (obtained in Example 2) were evaluated for binding by ELISA. The conditioned media from these transient transfections were assayed for human IgG concentration by AlphaLISA® immunoassay (PerkinElmer, No. AL310C) (Table 4). A plate-based MSD ELISA was performed in which human LILRB1-His or LILRB2-His was immobilized, and binding of transfection supernatants of humanized mAb variants was detected via an anti-human IgG Sulfo-tag-labeled secondary antibody. The IgG1 version of the parental rabbit/human chimera (designated B21A1) transfection served as the benchmark EC₅₀ positive control.
(§2) Recombinant human and cynomolgus LILRB1 proteins (R&D Systems, No. 8989-T2-050; ACROBiosystems, No. CDJ-C52H3) and recombinant human and cynomolgus LILRB2 proteins (ACROBiosystems, No. LI2-H5220; No. L12-C52H3) were diluted in PBS to 4 μg/mL and added to a multi-array 384-well high-binding plates (MSD, No. L21XA4) at 10 μL/well and incubated at 4° C. overnight. The plates were washed several times with Wash Buffer (0.05% Tween® 20 in PBS), using a microplate washer and then blocked with 70 μL/well of 5% BSA in PBS for 1 hour (h) at room temperature (RT) with shaking at 700 rpm. After blocking, 20 μL/well of anti-LILRB2/LILRB1 antibodies or isotype control were added to the plates, and the plates were sealed and incubated for 2 h at RT with shaking at 700 rpm. After primary antibody binding, plates were washed five times with 70 μL/well of Wash Buffer (0.05% Tween® 20 in PBS) using a microplate washer. Secondary detection antibody (SULFO-TAG™-labeled goat anti-human IgG antibody (MSD, No. R32AJ-1)) was diluted to 4 μg/mL in assay diluent (1% BSA in PBS) and 10 μL/well was added to plates and incubated at RT protected from light for 1 h, with shaking at 700 rpm. Following incubation, plates were washed five times with Wash Buffer, using a microplate washer. After removal of the final wash, 35 μL/well of MSD Gold Read Buffer B (MSD, No. R60AM-4) was added to all wells using a Multidrop combo washer/dispenser, and plates were read using MESO Sector 600MM instrument (MSD) within 5 minutes (min) after addition of Read Buffer. Signals as counts per minute (cpm) were recorded.

EC50	Binder
3.88 ng/mL	B1
4.85 ng/mL	B2
4.7 ng/mL	B3
1.3 ng/mL	B4
4.7 ng/mL	B5
3.73 ng/mL	B6
1.5 ng/mL	B7

These binders were tested against T2, recombinant human LILRB2-His (human, UniProt Q8N423 22-461, limits assumed) in the same assay as above.
T2 construct: Bought protein; also called LILRB2 protein
T2 sequence (Q8N423 22-461 limits assumed): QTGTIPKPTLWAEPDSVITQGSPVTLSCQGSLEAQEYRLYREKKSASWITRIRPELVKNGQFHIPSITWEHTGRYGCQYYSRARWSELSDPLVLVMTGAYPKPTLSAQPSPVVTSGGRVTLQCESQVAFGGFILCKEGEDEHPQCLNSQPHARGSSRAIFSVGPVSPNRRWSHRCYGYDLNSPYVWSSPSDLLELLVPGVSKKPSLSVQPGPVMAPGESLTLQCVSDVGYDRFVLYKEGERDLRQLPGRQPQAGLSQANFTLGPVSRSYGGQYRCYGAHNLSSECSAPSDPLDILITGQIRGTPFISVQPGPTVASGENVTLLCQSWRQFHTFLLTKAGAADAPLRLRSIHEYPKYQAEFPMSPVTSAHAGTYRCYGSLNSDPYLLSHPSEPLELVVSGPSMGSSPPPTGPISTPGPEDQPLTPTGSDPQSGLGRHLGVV
Experimental: as §1, §2

EC50	Binder
2.51 ng/mL	B1
2.75 ng/mL	B2
1.67 ng/mL	B3
1.46 ng/mL	B4
0.26 ng/mL	B5
2.63 ng/mL	B6
1.01 ng/mL	B7
